Experimental data: patent US20080227698A1, “OLIGOPEPTIDES FOR TREATMENT OF OSTEOPOROSIS AND OTHER BONE DISEASES AND METHODS THEREOF” (Washington University, priority 2005, published 2008)

How the values were obtained:
[1] = tested on: TCF/LEF transcriptional activity; assay: TOP-FLASH luciferase reporter assay in HEK293 cells cotransfected with LRP6 and Mesd constructs; format: cell-based; details: luciferase 48 hours after transfection
Experimental: HEK293 cells were plated into six-well plates. For each well, […] of the TOP-[…] luciferase construct (Upstate Biotechnology) was cotransfected with 0.8 μg Mesd-expressing vector, 0.8 μg Mesd mutant-expressing vector, or empty vector. A β-galactosidase-expressing vector (Promega, Madison, Wis.) was included as an internal control for transfection efficiency. After 48 hours, cells were lysed and both luciferase and β-galactosidase activities were determined with enzyme assay kits (Promega). The luciferase activity was determined with a luminometer using the Dual Luciferase Assay system (Promega). Luciferase activity was normalized to the activity of the P-galactosidase.
Activation of canonical Wnt signaling leads to the stabilization of P-catenin and regulation of gene transcription through transcription regulators including lymphoid-enhancing factor (LEF)-1 and T-cell factors (TCF). The TOP-FLASH luciferase reporter contains TCF-binding sites and can be directly activated by the P-catenin/TCF complex (Korinek et al., 1997). LRP6 is cell surface receptor, and only the mature receptor can reach the cell surface and modulate Wnt signaling (Cong et al., 2004). Next examined was the effect of Mesd_C on Wnt signaling using the TOP-FLASH luciferase reporter assay in HEK293 cells. […] The luciferase activity was measured 48 hours after transfection. […]

[2] = tested on: cytosolic β-catenin; assay: Cytosolic β-catenin level by western blotting in LRP6-transduced HT1080 cells; format: cell-based, human; details: 0.5 to 5 nM Mesd, 2 hours at 37° C. (data not shown)
Experimental: […] After washing in ice-cold PBS, cells were collected and homogenized in a glass Dounce homogenizer in buffer consisting of 100 mM Tris-HCl pH 7.4, 140 mM NaCl, 2 mM DTT, 2 mM PMSF, and 1X Complete™ protease inhibitors (500 μl/well). The homogenate was centrifuged for 10 minutes at 500 g, and the supernatant was further centrifuged at 100,000 g at 4° C. for 90 minutes. The resulting supernatant was designated the cytosolic fraction. The β-catenin levels were then examined by western blotting using β-catenin-specific antibody from Cell Signaling Technology. The immunoreactive proteins were detected using the ECL system. Films showing immunoreactive bands were scanned with a Kodak Digital Science DC120 Zoom Digital Camera and band intensities were analyzed with Kodak Digital Science 1D Image Analysis Software.
β-catenin is a key molecule in the Wnt/β-catenin signaling pathway. A cytosolic pool of β-catenin interacts with DNA-binding proteins and participates in Wnt signal transduction (Hinck, L., J. Cell Biol. 125, 1327-13401994; Gottardi, C. J., J. Cell Biol. 153: 1049-1060, 2001; Klingelhofer, J., Oncogene 22, 1181-1188, 2003). To determine whether Mesd binding to cell surface LRP6 directly regulates Wnt signaling, the effects of Mesd binding on cytosolic P-catenin levels in HT1080-LRP6 cells were studied. […]

[3] = molecular target: T1, LRP6 (Homo sapiens, UniProt O75581); assay: ^125I-RAP binding to LRP6-transduced HT1080 cells and control cells; parameters: plasmid pCS-Myc-hLRP6 containing the full-length human LRP6 cDNA; HA; expressed in transfected cells; host or cells: human HT1080 cells, stably transduced (pLNCX2 retroviral vector)
T1 sequence (O75581 20-1613): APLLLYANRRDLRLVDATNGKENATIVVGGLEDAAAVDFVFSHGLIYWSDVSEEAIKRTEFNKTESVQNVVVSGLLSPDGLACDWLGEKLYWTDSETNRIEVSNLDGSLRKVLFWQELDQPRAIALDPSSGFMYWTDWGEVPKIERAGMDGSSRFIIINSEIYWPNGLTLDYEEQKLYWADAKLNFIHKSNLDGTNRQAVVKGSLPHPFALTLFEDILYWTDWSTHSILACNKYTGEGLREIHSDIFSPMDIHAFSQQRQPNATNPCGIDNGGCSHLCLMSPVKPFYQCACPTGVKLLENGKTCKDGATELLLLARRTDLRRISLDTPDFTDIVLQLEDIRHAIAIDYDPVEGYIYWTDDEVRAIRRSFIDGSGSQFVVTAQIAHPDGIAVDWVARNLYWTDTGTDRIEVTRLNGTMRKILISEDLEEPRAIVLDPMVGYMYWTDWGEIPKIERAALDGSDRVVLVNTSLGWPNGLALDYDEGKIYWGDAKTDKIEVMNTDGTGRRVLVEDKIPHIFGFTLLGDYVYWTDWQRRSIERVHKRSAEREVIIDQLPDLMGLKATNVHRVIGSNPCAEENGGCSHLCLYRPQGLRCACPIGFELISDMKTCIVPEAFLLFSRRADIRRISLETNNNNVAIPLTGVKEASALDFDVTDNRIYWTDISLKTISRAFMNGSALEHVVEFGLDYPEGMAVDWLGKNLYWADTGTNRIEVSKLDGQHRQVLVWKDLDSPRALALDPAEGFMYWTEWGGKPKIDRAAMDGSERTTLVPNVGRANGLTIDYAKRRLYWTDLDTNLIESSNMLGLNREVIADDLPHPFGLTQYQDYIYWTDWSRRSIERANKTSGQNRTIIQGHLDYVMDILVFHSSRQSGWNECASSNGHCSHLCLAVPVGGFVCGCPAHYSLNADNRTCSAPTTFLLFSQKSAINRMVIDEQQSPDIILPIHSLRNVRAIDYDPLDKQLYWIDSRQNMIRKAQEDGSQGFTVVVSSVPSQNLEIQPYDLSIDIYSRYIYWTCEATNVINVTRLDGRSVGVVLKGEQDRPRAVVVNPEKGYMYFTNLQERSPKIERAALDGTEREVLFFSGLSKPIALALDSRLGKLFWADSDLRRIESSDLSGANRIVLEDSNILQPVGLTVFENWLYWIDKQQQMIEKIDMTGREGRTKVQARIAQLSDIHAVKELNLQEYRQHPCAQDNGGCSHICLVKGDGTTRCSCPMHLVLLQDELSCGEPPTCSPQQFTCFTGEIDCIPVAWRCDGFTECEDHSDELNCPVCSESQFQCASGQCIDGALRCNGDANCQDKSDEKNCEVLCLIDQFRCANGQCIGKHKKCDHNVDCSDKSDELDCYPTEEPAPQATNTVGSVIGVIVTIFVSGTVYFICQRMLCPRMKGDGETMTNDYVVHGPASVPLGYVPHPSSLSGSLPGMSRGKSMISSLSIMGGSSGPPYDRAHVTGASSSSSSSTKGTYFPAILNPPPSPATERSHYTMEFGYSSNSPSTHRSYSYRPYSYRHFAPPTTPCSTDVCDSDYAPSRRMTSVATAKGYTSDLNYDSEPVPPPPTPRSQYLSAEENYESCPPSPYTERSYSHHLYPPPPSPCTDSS
Experimental: Cells (2×10^5) were seeded into 12-well dishes 1 day prior to assay. Ligand-binding buffer (minimal Eagle's medium containing 0.6% BSA with a different concentration of radioligand, 0.6 ml/well) was added to cell monolayers, in the absence or the presence of 500 nM unlabeled RAP or 500 nM unlabeled Mesd, followed with incubation for 0-4 hours at 4° C. Thereafter, overlying buffer containing unbound ligand was removed, and cell monolayers were washed and lysed in low-SDS lysis buffer (62.5 mM Tris-HCl pH 6.8, 0.2% SDS, 10% v/glycerol) and counted.
Receptor-associated protein (RAP) binds with high affinity to LRP, megalin, VLDLR and apoER2, and with a lower affinity to the LDLR (Bu, G., Int. Rev. Cytol. 209, 79-116. 2001). To determine whether RAP and Mesd bind to identical, overlapping, or different sites on the receptors, binding and competition analysis of these two chaperones with HT1080 cells stably expressing LRP6 was performed.
In FIG. 8A, binding of ^125I-RAP (5 nM) to LRP6-transduced HT1080 cells and the control cells was carried out for 4 hours at 4° C. in the absence (total) or presence of 500 nM RAP, or 500 nM Mesd. In FIG. 8B, binding of ^125I-Mesd (5 nM) to LRP6-transduced HT1080 cells was carried out for 2 hours at 4° C. in the absence (total) or presence of various concentrations of RAP or 500 nM Mesd. (C) LRP6-mediated ^125I-Mesd (5 nM) degradation was carried out for 4 hours at 37° C. in the absence or presence of 500 nM Mesd or 500 nM RAP. Values are the means of triple determinations with the s.d. indicated by error bars.

[4] = molecular target: T1, LRP6; assay: ^125I-Mesd binding to LRP6, competition by Mesd or oligopeptide (FIG. 10C); parameters: plasmid pCS-Myc-hLRP6 containing the full-length human LRP6 cDNA; HA; expressed in transfected cells; host or cells: human HT1080 cells, stably transduced (pLNCX2 retroviral vector); details: compared with LRP5 (up to about 10-fold)
Experimental: In order to investigate the binding of Mesd polypeptide and an Mesd oligopeptide to either LRP5 or LRP6, binding assays were performed using ^125I-Mesd or ^125I-DKK1 (FIG. 10).

B1: Mesd: recombinant wild-type mouse Mesd, polyhistidine tail at the N-terminus, lacks the signal peptide, expressed in E. coli (protein)
chain: ADTPGEATPPPRKKKDIRDYNDADMARLLEQWEKDDDIEEGDLPEHKRPSAPIDFSKLDPGKPESILKMTKKGKTLMMFVTVSGNPTEKETEEITSLWQGSLFNANYDVQRFIVGSDRAIFMLRDGSYAWEIKDFLVSQDRCAEVTLEGQMYPGKGGGSKEKNKTKPEKAKKKEGDRKPRASKEDNRAGSRREDL
modifications: left off: small tags and cut ends
notes: recombinant wild-type mouse Mesd, polyhistidine tail at the N-terminus, lacks the signal peptide, expressed in E. coli
TCF/LEF transcriptional activity (TOP-FLASH) on coexpression [1]: significantly enhanced | Change in cytosolic β-catenin levels [2]: no significant change | Effect of excess unlabeled competitor on ^125I-RAP binding to control cells ([3]; 500 nM competitor, control cells expressing vector alone, 4° C.): not | Effect on the LRP6-dependent increase of ^125I-RAP binding ([3]; excess unlabeled Mesd (500 nM), 4 hours at 4° C.): abolished | Reduction of binding of ^125I-Mesd to LRP6 [4]: even greater reduction
